Assay results as given in patent publication US20140357844A1 (RINAT NEUROSCIENCE, published 2014).
Substitutions are numbered along the chain they refer to.

Experiments:
[1] = target: T1, cynomolgus monkey Trop-2-hFc (cynomolgus monkey, UniProt A0A2K5UE71 27-274); experiment: SPR (Biacore T200), cynomolgus Trop-2-hFc captured by anti-human Fc, Fab as analyte
T1 construct: also called cynoTrop-2; not shown: human Fc
T1 sequence: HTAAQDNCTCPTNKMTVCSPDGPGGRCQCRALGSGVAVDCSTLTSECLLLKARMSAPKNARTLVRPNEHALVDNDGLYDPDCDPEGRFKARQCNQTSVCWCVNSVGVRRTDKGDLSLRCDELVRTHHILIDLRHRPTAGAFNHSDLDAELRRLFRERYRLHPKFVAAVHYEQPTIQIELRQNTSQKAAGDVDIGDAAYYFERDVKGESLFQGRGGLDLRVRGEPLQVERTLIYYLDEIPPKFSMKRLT

[2] = target: T2, human Trop-2-hFc (human, UniProt P09758 27-274); experiment: SPR (Biacore T200), human Trop-2-hFc captured by anti-human Fc, Fab as analyte
T2 construct: also called huTrop-2; human Trop-2 human Fc fusion protein; not shown: human Fc
T2 sequence: T1 sequence with V36M, E46K, N67S, V204I

[3] = target: T3, monovalent human Trop2-ECD antigen (human, UniProt P09758 27-274); experiment: SPR (ProteOn XPR36), amine-coupled Fab, monovalent human Trop2-ECD as analyte, 25 C;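 further: GLC sensor chip, 3 min association then 15 min buffer dissociation, kinetics fit with a 1:1 Langmuir model, buffer of 10 mM sodium phosphate with 150 mM NaCl and 0.05% Tween-20 at pH 7.4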
T3 construct: also called human Trop2-ECD (Extracellular Domain)
T3 sequence: T1 sequence with V36M, E46K, N67S, V204I
Experimental: Analysis of Fab/human Trop2-ECD (Extracellular Domain) interactions was performed using a Bio-Rad Proteon XPR36Surface Plasmon Resonance (SPR) biosensor (Bio-Rad, Hercules, Calif.) equipped with a GLC sensor chip. The assay temperature was 25° C., and the assay buffer was 10 mM Sodium Phosphate, 150 mM NaCl, 0.05% Tween-20, pH 7.4. […] In each analysis cycle, monovalent human Trop2-ECD antigen was flowed at 30 μL/min over the immobilized Fabs for 3 minutes followed by a buffer wash for 15 minutes to monitor dissociation of the Fab/Trop2 complex. The sensor surface was regenerated between analysis cycles, using three 18-second injections of a 2:1 mixture (by volume) of Pierce IgG Elution buffer:4 M NaCl (Pierce, Rockford, Ill.). […] The resulting data were fit to a 1:1 Langmuir binding model using the Proteon evaluation software.

[4] = target: T4, Trop-2 on Trop-2 expressing tumor cells (human, UniProt P09758 27-323); experiment: flow cytometry, A431 cells (Trop-2+++), 0.5 ug antibody per 200,000 cells
T4 construct: Endogenous Trop-2 of human tumour cell lines; also called Trop-2 positive tumor cells; A431 (Trop-2+++)
T4 sequence: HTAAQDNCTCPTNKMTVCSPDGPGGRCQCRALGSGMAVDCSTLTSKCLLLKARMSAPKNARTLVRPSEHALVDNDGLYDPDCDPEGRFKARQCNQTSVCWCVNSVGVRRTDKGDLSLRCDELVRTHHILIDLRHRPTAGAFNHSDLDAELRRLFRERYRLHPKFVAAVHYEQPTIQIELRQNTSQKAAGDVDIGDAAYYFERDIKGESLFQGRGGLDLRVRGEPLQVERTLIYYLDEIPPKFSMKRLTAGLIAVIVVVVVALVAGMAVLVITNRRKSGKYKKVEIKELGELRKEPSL
Experimental: For A431 cell staining, 200,000 cells were incubated with 0.5 ug antibody in 100 uL binding buffer (PBS (Phosphate Buffered Saline)+0.5% BSA (Bovine Serum Albumin)), followed by incubation with Dylight488-conjugated goat anti-human (Fab′)-2-specific secondary antibody from Jackson immunoresearch Laboratories (West Grove, Pa.).

[5] = target: T4, Trop-2 on Trop-2 expressing tumor cells; experiment: flow cytometry, Colo205 cells (Trop-2+), 1 ug antibody per 300,000 cells
[6] = target: T5, Monomeric Trop-2 extracellular domain prepared from papain digestion of Trop-2-Fc fusion protein (human, UniProt P09758 27-274); experiment: SPR (Biacore), mouse IgG captured by anti-mouse IgG, monomeric Trop-2 ECD as analyte
T5 construct: also called huTrop-2
T5 sequence: T1 sequence with V36M, E46K, N67S, V204I
Experimental: The affinities of anti-Trop-2 mouse antibodies generated from hybridomas were measured on a surface plasmon resonance Biacore™ 2000 or 3000 biosensor equipped with a research-grade CM5 sensor chip (Biacore™ AB, Uppsala, Sweden—now GE Healthcare). Anti-mouse IgG was first amine coupled to the CM5 sensor surface. Various anti-Trop-2 mouse IgGs were then captured by anti-mouse IgG. Monomeric Trop-2 extracellular domain prepared from papain digestion of Trop-2-Fc fusion protein was then injected as the analyte at 3 fold dilution series.

[7] = target: T4, Trop-2 on Trop-2 expressing tumor cells; experiment: flow cytometry, Colo205 cells (Trop-2+), 1 ug antibody per 300,000 cells; remark: listed apart in the source
[8] = target: T4, Trop-2 on Trop-2 expressing tumor cells; experiment: flow cytometry, A431 cells (Trop-2+++), 1 ug antibody per 300,000 cells
[9] = target: T6, Human Trop-2-mFc protein (human, UniProt P09758 27-274); experiment: SPR (Biacore 2000), human Trop-2-mFc captured by anti-mouse Fc, Fab as analyte
T6 construct: also called huTrop-2; not shown: mouse Fc
T6 sequence: T1 sequence with V36M, E46K, N67S, V204I

B1: h7E6_SVG Fab (Fab, V domains shown)
VH: QVQLQESGPGLVKPSETLSLTCTVSGGSISSYGVHWIRQPPGKGLEWIGVIWTSGVTDYNSALMGRVTISVDTSKNQFSLKLSSVTAADTAVYYCARDGDYDRYTMDYWGQGTLVTVSS
VL: DIVMTQSPDSLAVSLGERATINCRASKSVSTSGYSYMHWYQQKPGQPPKLLIYLASNLESGVPDRFSGSGSGTDFTLTISSLQAEDVAVYYCQHSRELPYTFGQGTKLEIK
notes: also called DG (h7E6_SVG)
- Kd [1]: 7 nM
- koff [1]: 0.00189 s⁻¹
- kon [1]: 265000 M⁻¹ s⁻¹
- Kd [2]: 4.46 nM
- koff [2]: 0.000435 s⁻¹
- kon [2]: 97600 M⁻¹ s⁻¹
- Kd [3]: 4.1 nM
- koff [3]: 0.00069 s⁻¹
- kon [3]: 170000 M⁻¹ s⁻¹
- t1/2 [3]: 17 min

B2: h7E6-WT recombinant Fab fragment (Fab, V domains shown)
VH: B1 VH with S54G, V56S, G65S
VL: B1 VL
notes: Recombinant Fab
- Kd [1]: 44 nM
- koff [1]: 0.00635 s⁻¹
- kon [1]: 144000 M⁻¹ s⁻¹
- Kd [2]: 21.1 nM
- koff [2]: 0.00294 s⁻¹
- kon [2]: 139000 M⁻¹ s⁻¹

B3: h7E6_WT antibody (human IgG1) (antibody, V domains shown)
VH: B1 VH with S54G, V56S, G65S
VL: B1 VL
notes: Human IgG1
- % positive [4]: 94.8%
- MFI [4]: 102000
- % positive [5]: 99%
- MFI [5]: 1760

B4: h7E6_L antibody (human IgG1) (antibody, V domains shown)
VH: B1 VH with S54G, V56S, G65S
VL: B1 VL with G33L
notes: Human IgG1
- % positive [4]: 95.1%
- MFI [4]: 110000
- % positive [5]: 100%
- MFI [5]: 2470

B5: h7E6_SVG antibody (human IgG1) (antibody, V domains shown)
VH: B1 VH
VL: B1 VL
- % positive [4]: 96.7%
- MFI [4]: 121000
- % positive [5]: 100%
- MFI [5]: 2420

B6: h7E6_L recombinant Fab fragment (Fab, V domains shown)
VH: B1 VH with S54G, V56S, G65S
VL: B1 VL with G33L
notes: Recombinant Fab
- Kd [1]: 2.66 nM
- koff [1]: 0.000335 s⁻¹
- kon [1]: 126000 M⁻¹ s⁻¹
- Kd [2]: 1.15 nM
- koff [2]: 0.00015 s⁻¹
- kon [2]: 130000 M⁻¹ s⁻¹

B7: h7E6_SVGL antibody (human IgG1) (antibody, V domains shown)
VH: B1 VH
VL: B1 VL with G33L
notes: Human IgG1
- % positive [4]: 93.1%
- MFI [4]: 107000
- % positive [5]: 100%
- MFI [5]: 2420

B8: h7E6_SVGL recombinant Fab fragment (Fab, V domains shown)
VH: B1 VH
VL: B1 VL with G33L
notes: Recombinant Fab
- Kd [1]: 0.57 nM
- koff [1]: 7.42e-05 s⁻¹
- kon [1]: 130000 M⁻¹ s⁻¹
- Kd [2]: 0.25 nM
- koff [2]: 3.27e-05 s⁻¹
- kon [2]: 131000 M⁻¹ s⁻¹

B9: h7E6_N antibody (human IgG1) (antibody, V domains shown)
VH: B1 VH with S54G, V56S, G65S
VL: B1 VL with G33N
notes: Human IgG1
- % positive [4]: 98.6%
- MFI [4]: 149000
- % positive [5]: 100%
- MFI [5]: 2700

B10: h7E6_SVGN antibody (human IgG1) (antibody, V domains shown)
VH: B1 VH
VL: B1 VL with G33N
notes: Human IgG1
- % positive [4]: 98.1%
- MFI [4]: 128000
- % positive [5]: 100%
- MFI [5]: 2730

B11: anti-Trop-2 mouse antibody 6G11 (antibody, mouse IgG2a, V domains shown)
VH: QVQLQQPGAELVRPGASVKLSCKASGYTFTSYWINWVKQRPGHGLEWIGNIYPSDSYSNYNQKFKDKATLTVDKSSSTAYMQVSSPTSEDSAVYYCTYGSSFDYWGQGTTVTVSS
VL: DILLTQSPAILSVSPGERVSFSCRASQTIGTSIHWYQQRTNGSPRLLIKYASESISGIPSRFSGSGSGTDFTLSINSVESEDIADYYCQQSNSWPFTFGSGTKLEIK
notes: also called m6G11
- Kd [6]: 31.8 nM
- koff [6]: 0.0086 s⁻¹
- kon [6]: 270000 M⁻¹ s⁻¹

B12: chimeric mouse anti-Trop-2 6G11 antibody (human IgG1) (antibody, V domains shown)
VH: B11 VH
VL: B11 VL
notes: Expressed in the human IgG1 subtype; also called mouse 6G11
- % positive [7]: 100%
- MFI [7]: 1670
- % positive [8]: 99.9%
- MFI [8]: 16200

B13: h6G11_WT antibody (human IgG1) (antibody, V domains shown)
VH: QVQLVQSGAEVKKPGASVKVSCKASGYTFTSYWINWVRQAPGQGLEWMGNIYPSDSYSNYNQKFKDRVTMTRDTSTSTVYMELSSLRSEDTAVYYCARGSSFDYWGQGTLVTVSS
VL: EIVLTQSPATLSLSPGERATLSCRASQTIGTSIHWYQQKPGQAPRLLIYYASESISGIPARFSGSGSGTDFTLTISSLEPEDFAVYYCQQSNSWPFTFGQGTKLEIK
notes: Human IgG1
- % positive [7]: 99%
- MFI [7]: 1720
- % positive [8]: 99.9%
- MFI [8]: 19600

B14: Human 6G11 WT Fab fragment (Fab, V domains shown)
VH: B13 VH
VL: B13 VL
notes: Fab; also called h6G11_WT; h6G11
- Kd [9]: 27 nM
- koff [9]: 0.0096 s⁻¹
- kon [9]: 360000 M⁻¹ s⁻¹

B15: Human 6G11_FKG_SF Fab fragment (Fab, V domains shown)
VH: B13 VH with Y52F, Q62K, S101G
VL: B13 VL with Q89S, N92F
notes: Fab
- Kd [9]: 0.6 nM
- koff [9]: 0.00038 s⁻¹
- kon [9]: 640000 M⁻¹ s⁻¹

B16: h6G11_FKG_SF antibody (human IgG1) (antibody, V domains shown)
VH: B13 VH with Y52F, Q62K, S101G
VL: B13 VL with Q89S, N92F
- % positive [7]: 100%
- MFI [7]: 2060
- % positive [8]: 99.9%
- MFI [8]: 20300
